B1: Photozipper (PZ), N-terminally truncated aureochrome-1 of Vaucheria frigida, wild type [Vaucheria frigida] / itself (parent)
chain: GSISSELTEAQKVERRERNREHAKRSRVRKKFLLESLQQSVNELNHENNSLKESIREHLGPRGDSLIAQSSPEADTLLTDNPSKANRILEDPDYSLVKALQMAQQNFVITDASLPDNPIVYASRGFLTLTGYSLDQILGRNCRFLQGPETDPRAVDKIRNAITKGVDTSVCLLNYRQDGTTFWNLFFVAGLRDSKGNIVNYVGVQSKVSEDYAKLLVNEQNIEYKGVRTSNMLRRK

Variants of: B1
Experiment: DLS
Conditions: with itself

Row | hydrodynamic size (D (dark) state) [nm] | hydrodynamic size (L (light) state) [nm] | Variant
1 | 3.05 | 3.86 | chain 1 L89A L96A L100A
2 | 3.18 | 3.88 | chain 1 L100A

— article PMC8184817, “Transmission of light signals from the light-oxygen-voltage core via the hydrophobic region of the β-sheet surface in aureochrome-1” (Scientific Reports, 2021)
